In paper PMC4939007, “The GH51 α-L-arabinofuranosidase from Paenibacillus sp. THS1 is multifunctional, hydrolyzing main-chain and side-chain glycosidic bonds in heteroxylans” (Biotechnology for Biofuels, 2016) one finds Km, kcat and kcat/Km data, which are given here for 1 substance.

What all share (assay): purified protein
Series [1] has as its system O=[N+]([O-])c1ccc(O[C@@H]2O[C@@H](CO)[C@H](O)[C@H]2O)cc1. Particulars: 50 mM sodium phosphate pH 6.5, 1 mg/mL BSA, 60 °C, 0–5 mM substrate.
Series [2] deals with O=[N+]([O-])c1ccc(O[C@@H]2O[C@@H]([C@H](O)CO)[C@H](O)[C@H]2O)cc1. The note with it: 50 mM sodium phosphate pH 6.5, 1 mg/mL BSA, 60 °C, 0–14 mM substrate, authors' caution: maximum substrate below 2 x KM.
Series [3] relates to O=[N+]([O-])c1ccc(O[C@@H]2OC[C@@H](O)[C@H](O)[C@H]2O)cc1. Particulars: 50 mM sodium phosphate pH 6.5, 1 mg/mL BSA, 60 °C, 0–40 mM substrate, authors' caution: maximum substrate below 2 x KM.

As usually defined, the Km is the concentration of substrate that gives half-maximal velocity. Usually kcat stands for the maximal rate divided by the concentration of active sites. A word on the kcat/Km: it is the turnover number divided by the Michaelis constant. As to THSAbf (Paenibacillus sp. HanTHS1), in series [1], the Km was 0.31 ± 0.1 mM, the kcat was found to be 328 ± 23 s⁻¹ and the kcat/Km is 1.05e+06 M⁻¹ s⁻¹. In addition, in series [2], the Km was 8.6 ± 0.9 mM, the kcat amounted to 327 ± 20 s⁻¹ and the kcat/Km was 38000 M⁻¹ s⁻¹. Further, in series [3], the Km was 23.8 ± 4.1 mM, the kcat was 10.6 ± 0.9 s⁻¹ and the kcat/Km was 440 M⁻¹ s⁻¹.
